Measurements reported in PMC2768988 (2009).

Target: T1, Flrt3 ectodomain (zebrafish, biotin on the enzymatically biotinylatable sequence (bait form))
T1 chain: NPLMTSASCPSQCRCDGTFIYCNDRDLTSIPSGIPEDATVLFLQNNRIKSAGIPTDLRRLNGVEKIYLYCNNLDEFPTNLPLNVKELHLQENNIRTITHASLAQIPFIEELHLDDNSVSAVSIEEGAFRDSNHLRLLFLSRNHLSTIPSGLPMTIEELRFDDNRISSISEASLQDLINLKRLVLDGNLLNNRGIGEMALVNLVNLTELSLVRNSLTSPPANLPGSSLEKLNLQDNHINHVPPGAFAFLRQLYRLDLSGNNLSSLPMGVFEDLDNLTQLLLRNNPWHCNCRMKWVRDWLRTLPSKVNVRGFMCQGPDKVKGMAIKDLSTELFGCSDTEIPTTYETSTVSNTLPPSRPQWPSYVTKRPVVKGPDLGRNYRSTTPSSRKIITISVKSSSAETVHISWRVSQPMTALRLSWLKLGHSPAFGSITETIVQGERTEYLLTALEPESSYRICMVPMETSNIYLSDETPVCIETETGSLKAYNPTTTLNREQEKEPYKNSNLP
Test: SPR

B1: Unc5b-Cd4d3+4-6His (domain or fragment)
chain: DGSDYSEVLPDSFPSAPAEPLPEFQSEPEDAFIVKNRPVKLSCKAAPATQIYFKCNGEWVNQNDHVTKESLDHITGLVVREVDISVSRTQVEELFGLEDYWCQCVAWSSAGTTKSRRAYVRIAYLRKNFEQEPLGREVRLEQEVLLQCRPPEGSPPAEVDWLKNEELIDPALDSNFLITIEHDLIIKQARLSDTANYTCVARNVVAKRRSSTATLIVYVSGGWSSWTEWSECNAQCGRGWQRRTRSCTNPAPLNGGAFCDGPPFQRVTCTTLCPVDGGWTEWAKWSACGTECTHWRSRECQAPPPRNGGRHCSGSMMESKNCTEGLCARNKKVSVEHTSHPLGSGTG
A koff of 5.5 s⁻¹ was found for B1 in this work.
